{"source": "patent US20160169873A1", "key": {"[1]": {"target": "SHEP1 cell (surface binding partners of WGA not named)", "test": "z-modulation FFT microscopy on a fixed SHEP1 cell, 10, 20 and 50 µg/ml WGA, first order kinetic model fit"}, "[2]": {"target": "glycoprotein on Barrett's esophagus derived CP-D (CP-18821) cells", "test": "cell edge tracking (mechanical deformation) by phase contrast microscopy on fixed CP-D cells, 20 ug/ml WGA, first order kinetics fit"}, "[3]": {"target": "glycoprotein on Barrett's esophagus derived CP-D (CP-18821) cells", "test": "cell edge tracking (mechanical deformation) by phase contrast microscopy on fixed CP-D cells, 5 ug/ml WGA, first order kinetics fit"}}}
{"substance": "Wheat germ agglutinin (WGA) (from UniProt P10968 27-197)", "values": [{"measurement": "Kd", "setting": "[1]", "value": 125, "unit": "nM"}, {"measurement": "koff", "setting": "[1]", "value": 0.013, "unit": "s⁻¹"}, {"measurement": "kon", "setting": "[1]", "value": 14000, "unit": "M⁻¹ s⁻¹"}, {"measurement": "Kd", "setting": "[2]", "value": 21, "unit": "nM"}, {"measurement": "koff", "setting": "[2]", "value": 0.0029, "unit": "s⁻¹"}, {"measurement": "kon", "setting": "[2]", "value": 140000, "unit": "M⁻¹ s⁻¹"}, {"measurement": "Kd", "setting": "[3]", "value": 14, "unit": "nM"}, {"measurement": "koff", "setting": "[3]", "value": 0.00156, "unit": "s⁻¹"}, {"measurement": "kon", "setting": "[3]", "value": 109000, "unit": "M⁻¹ s⁻¹"}]}
